Results: patent publication US20250154240A1, “ANTI-HUMAN CXCL1 ANTIBODY” (CHIOME BIOSCIENCE INC., priority 2022, published 2025)

What was measured:
CXCR2-expressing cells = experiment: In vivo migration inhibitory activity test on CXCR2-expressing cells, OCUM-12 orthotopic transplantation (prevention model); design: species or system mouse; settings: 400 μg/head intraperitoneally twice a week, 3 weeks; compared to hIgG1 antibody
Excerpt: (§1) The stomachs after measurement of the tumor size in [3-1] above were excised and fixed overnight at room temperature with a 10% neutral buffered formalin solution (Wako Pure Chemical Industries, Ltd., Japan), followed by replacement with PBS. Then, paraffin embedding and section preparation were outsourced to Applied Medical Research Laboratory, Japan. The prepared gastric tumor sections were immunohistologically stained with an anti-CXCR2 antibody to evaluate in vivo CXCR2 cell migration inhibitory activity. The sections were deparaffinized and rehydrated, and then treated to inactivate endogenous peroxidase. After antigen activation treatment, the sections were blocked with PBS containing 2% skimmed milk and 0.1% Tween-20, and reacted overnight at 4° C. with an anti-CXCR2 antibody (Biorbyt) as a primary antibody, which had been diluted to 0.3 μg/mL with the blocking solution. After washing with PBS containing 0.1% Tween-20, the sections were reacted at room temperature for 1 hour with an HRP-labeled goat anti-rabbit IgG antibody (Abcam) as a secondary antibody. After washing with a washing solution, a simple stain DAB solution (5052, Nichirei Corporation, Japan) was used to cause color development. After images of the stained tissues were captured with an Explore (Olympus Corporation, Japan), imaging software CellSens (Olympus Corporation, Japan) was used to calculate CXCR2-positive cells per unit area.
(§2) Navarixin is among small molecular compounds that act on CXCR2 and inhibit CXCL1-CXCR2 signaling. […] Then, using a model with OCUM-12 orthotopic transplantation, the migration inhibition of CXCR2-expressing cells and antitumor activity were evaluated in vivo for Navarixin. As a vehicle, ultrapure water containing 20% 2-hydroxypropyl-β-cyclodextrin (FUJIFILM Wako Pure Chemical Corporation, Japan) was used. Navarixin (MedChemExpress) was dissolved in ultrapure water containing 20% 2-hydroxypropyl-β-cyclodextrin, and orally administered at a dose of 100 mg/kg/day in a schedule of once a day for 5 consecutive days, followed by a 2-day withdrawal.
as §1, with “after measurement were excised” for “after measurement of the tumor size in [3-1] above were excised”, “and 0.1% Tween-20 (hereinafter referred to as the blocking solution), and reacted” for “and 0.1% Tween-20, and reacted”, “been diluted 1667-fold with the” for “been diluted to 0.3 μg/mL with the”, “to calculate positive cells per” for “to calculate CXCR2-positive cells per”
The dose-response relationship between antibody dose and in vivo antitumor activity or CXCR2 migration inhibitory activity was evaluated in a xenograft prevention model with OCUM-12 orthotopic transplantation. A prevention model is a model designed to start antibody administration from the day following tumor transplantation. […]

[1] = tested on: OCUM-12 gastric cancer cell line; experiment: Antitumor activity test, model with OCUM-12 orthotopic transplantation (prevention model); assay type: in vivo, mouse; settings: 400 μg/head intraperitoneally twice a week, 3 weeks; compared to hIgG1 antibody
Experimental: A model with OCUM-12 orthotopic transplantation was prepared to evaluate the above 4 types of candidate antibodies for their in vivo CXCR2 migration inhibitory activity and antitumor activity in a xenograft model with OCUM-12 orthotopic transplantation.
For use as mice, female nude mice (BALB/cAJcl-nu/nu) at 5 to 6 weeks of age were purchased from CLEA Japan, Inc., Japan. For use as human cancer cells, a gastric cancer cell line, OCUM-12, was provided by University Public Corporation Osaka, Japan.
OCUM-12 cells were cultured in D-MED medium (FUJIFILM Wako Pure Chemical Corporation, Japan) supplemented with 10% fetal bovine serum (FBS; Sigma-Aldrich Corporation) and 1/100 volumes of a penicillin-streptomycin mixture (Nacalai Tesque, Inc., Japan). The cells to be transplanted were detached with 0.25% trypsin/0.02% EDTA (Thermo Fisher Scientific) and washed with PBS, and 4× 10^5 cells per mouse were transplanted into the gastric wall of each mouse.
On the day following the above transplantation, the mice were randomized into groups (8 or 6 mice per group) and intraperitoneally administered with PBS as a control and with 4 types of candidate antibodies (1A-7H10, 4A-2F7, 5A-5E11 and 028-8-12) and 3 types of non-candidate antibodies (1A-3C6, 1A-2H3 and 4A-5B11) at a dose of 20 mg/kg. In addition, mouse IgG1 as a control was intraperitoneally administered at a dose of 20 mg/kg, and 3 types of antibodies (5A-5E11, 1A-4H10 and 4A-7G7) among the candidate antibodies were intraperitoneally administered at a dose of 20 mg/kg. The administration of these antibodies was then continued with a frequency of twice a week until the completion of the test. After 3 weeks had passed from the transplantation, the mice were sacrificed, and the short- and long-axis diameters of tumors formed in their gastric walls were each measured with a caliper. The tumor size was calculated according to the following: 1/2 short-axis diameter (mm)×1/2 long-axis diameter (mm)×3.14.
as §2
The humanized antibodies were evaluated for their in vivo antitumor activity and CXCR2 migration inhibitory activity in a xenograft model with OCUM-12 orthotopic transplantation. Procedures for the evaluation are shown below.
For use as mice, female nude mice (BALB/cAJcl-nu/nu) at 5 to 6 weeks of age were purchased from CLEA Japan, Inc., Japan. For use as human cancer cells, gastric cancer cell line, OCUM-12, was provided by Osaka Metropolitan University, Japan.
OCUM-12 cells were cultured in D-MED medium (FUJIFILM Wako Pure Chemical Corporation, Japan) supplemented with 10% fetal bovine serum (hereinafter abbreviated as FBS; Sigma-Aldrich Corporation) and 1/100 volumes of a penicillin-streptomycin mixture (Nacalai Tesque, Inc., Japan). The cells to be transplanted were detached with 0.25% trypsin/0.02% EDTA (Thermo Fisher Scientific) and washed with PBS, and 4×10^5 cells per mouse were transplanted into the gastric wall of each mouse. On the day following the transplantation, the mice were randomized into groups (8 mice per group) and intraperitoneally administered with test antibodies at a dose of 400 μg/head. PBS was intraperitoneally administered in a volume of 200 μL with a frequency of twice a week for 3 weeks, starting from the day following the transplantation. […]

| Molecule | Migration of CXCR2-expressing cells (positive cells per unit area) (CXCR2-expressing cells) | Antitumor activity (tumor area) [1] |
| --- | --- | --- |
| Hu4A-2F7: humanized antibody VH1/VL1; VH SEQ ID NO: 72, VL SEQ ID NO: 74 (antibody, V domains shown) VH: QVTLKESGPALVKPTQTLTLTCTFSGFSLSTSGMGVDWIRQPPGKALEWLAHIWWDDDKYYNPSLKSQLTISKDTSKNQVVLTMTNMDPVDTATYYCARSYGYDMDYYAMDYWGQGTTVTVSS VL: DIQMTQSPSSLSASVGDRVTITCRASQEISGYLSWLQQKPGKAPKRLIYAASTLSSGVPSRFSGSGSGTDFTLTISSLQPEDFATYYCLQYASYPPWTFGGGTKVEIK | significantly suppress the migration of CXCR2-expressing cells | significantly suppress an increase in the tumor area |
| modified human antibody 028-8-12: human antibody 028-8-12 with amino acid modifications in CDR and VL regions; VH SEQ ID NO: 63, VL SEQ ID NO: 67 (antibody, V domains shown) VH: EVQLLESGGGLVQPGGSLRLSCAASGFTFSELSMSWVRQAPGKGLEWVSAISGSGGSTYYASSVKGRFTISRDNSKNTLYLQMNSLRAEDTAVYYCAREGGRLEPYYYYYAMDVWGQGTPVTVSS VL: DIQMTQSPSSLSASVGDRVTITCRASQSISDNLHWYQQKPGKAPKLLIYDASNLESGVPSRFSGSGSGTDFTLTISSLQPEDFATYYCQQYYSTPLTFGQGTKLEIK | significantly suppress the migration of CXCR2-expressing cells | significantly suppress an increase in the tumor area |
| Hu1A-7H10: humanized antibody VH1/VL1; VH SEQ ID NO: 68, VL SEQ ID NO: 70 (antibody, V domains shown) VH: QVTLKESGPVLVKPTETLTLTCTVSGFSSTTYGVHWVRQPPGKALEWLGVIWAGGSTNYNAALMSRLTISKDTSKSQVVLTMTNMDPVDTATYYCATQYHYPFAYWGQGTLVTVSS VL: DIQMTQSPSSLSASVGDRVTITCKASENVGIYVSWYQQKPGKAPKLMIYGASNRNTGVPSRFSGSGSGTDFTLTISSLQPEDFATYYCGQSYSYPLTFGGGTKVEIK | significantly suppress the migration of CXCR2-expressing cells | significantly suppress an increase in the tumor area |
